± gives the standard error. Variants at the floor of the assay were thinned out.
B1: glmS ribozyme (parent)
chain: AUAAAAGCGCCAGAACUACAGAAAUGUAGUUGACGAGGAGGAGGUUUAUCGAAUUUUCGGCGGAUGCCUCCAAA

Legend:
Details in all cases: with glucosamine-6-phosphate
[1] = variants of: B1; experiment: self-cleavage kobs at 640 uM GlcN6P; higher = faster cleavage; RNA array
Summary of the method: (§1)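 Tiles bearing barcoded ribozyme variants, transcribed in situ by E. coli RNA polymerase on sequenced MiSeq chips, were imaged over ~14 h at 37 °C using a hybridised Cy3 probe. Glucosamine-6-phosphate was supplied at 40 μM to 10 mM in HEPES/KCl/Mg(OAc)2 buffer. kobs came from one- or two-exponential decay fits to normalised per-tile medians, and weighted Michaelis–Menten fits then provided kcat and KM.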

[2] = variants of: B1; experiment: self-cleavage kobs at 2500 uM GlcN6P; higher = faster cleavage; RNA array
Summary of the method: as §1

[3] = variants of: B1; experiment: self-cleavage kobs at 10000 uM GlcN6P; higher = faster cleavage; RNA array
Summary of the method: as §1

Variant | self-cleavage kobs at 640 uM GlcN6P [1] [s⁻¹] | self-cleavage kobs at 2500 uM GlcN6P [2] [s⁻¹] | self-cleavage kobs at 10000 uM GlcN6P [3] [s⁻¹]
G7U G9A G40C | < 1e-05 | < 1e-05 | 
C11G U31A U47C C61G | < 1e-05 | < 1e-05 | 
A14U U46G G60A C71A | < 1e-05 |  | 
G7A A15U G51C A64G | < 1e-05 |  | 
A52C U57G U69G | 8.06e-05 ± 2.8e-05 |  | 
U31G G62A | < 1e-05 |  | 
A12G G43A U46G U69G | < 1e-05 | < 1e-05 | 
U31C G37A A53G | 5.04e-05 ± 8.3e-06 | 0.000126 ± 2e-05 | 
A36C A42G G43A C67G | < 1e-05 |  | 
G41C C50G G51C | < 1e-05 |  | 
A48G C50G C58G | 0.000184 ± 8.1e-05 |  | 
A36C G41A C50G C58G | < 1e-05 |  | 
A39U G43C G44A G51U | < 1e-05 | < 1e-05 | 
A6C U31C G62A | < 1e-05 |  | 
A6U U54C C68G U69G | 0.00033 ± 9.7e-05 |  | 
G7A C11U A52U C58A G62U | < 1e-05 |  | 
A6U G37A U55G C71G | < 1e-05 |  | < 1e-05
G38C A42G U49G A52G G63C | < 1e-05 | < 1e-05 | 
A14C C34A U46G | < 1e-05 | < 1e-05 | 
U31A G35C G38U A48U U49G G63C | < 1e-05 | < 1e-05 | 
G29C U56A C71A | 4.27e-05 ± 1.8e-05 |  | 
G37U G59U G63A | < 1e-05 | < 1e-05 | 
A33U G44U A48C | < 1e-05 |  | 

Variant | self-cleavage kobs at 640 uM GlcN6P [1] [s⁻¹] | self-cleavage kobs at 2500 uM GlcN6P [2] [s⁻¹] | self-cleavage kobs at 10000 uM GlcN6P [3] [s⁻¹]
A39U A42C A53U C58U | < 1e-05 | < 1e-05 | 
C50U U56G C70G | 0.000278 ± 8e-05 | 0.000251 ± 5.8e-05 | 
G13C G43U G59U | < 1e-05 | < 1e-05 | 
G9A G40C G44A G59U | < 1e-05 |  | 
A6U A15U G40U G43C | < 1e-05 |  | 
C34U A48U A64U | < 1e-05 | < 1e-05 | 
G13U C16A A39G G40U C68G | < 1e-05 | < 1e-05 | 
C16U G59C G62U | < 1e-05 |  | 
G13C G37A G62A | < 1e-05 | < 1e-05 | < 1e-05
C16U U57G C68U | 3.89e-05 ± 1.6e-05 |  | 
G9U G32C C34G C58U C68G | 0.000182 ± 7.9e-05 |  | 
A14C U56G C68A | 9.34e-05 ± 3.4e-05 | 8.68e-05 ± 2.2e-05 | 
C11U A15U G38A A53U | < 1e-05 |  | 
U46A C58G | < 1e-05 |  | 
G7A G38C C58A | < 1e-05 | < 1e-05 | 
U56C A64C | < 1e-05 |  | 
G38U C50G A64G | 6.44e-05 ± 2.9e-05 | 3.85e-05 ± 1.7e-05 | 
A15G G38U G59C | < 1e-05 |  | 
C11A A53C G66U | < 1e-05 |  | 
G37C G59C | < 1e-05 | < 1e-05 | < 1e-05
U30C C50G C61G | 0.000327 ± 0.00012 |  | 
G41C G63C A64U | < 1e-05 | < 1e-05 | 
G9C A53U C70A | < 1e-05 |  | 

Variant | self-cleavage kobs at 640 uM GlcN6P [1] [s⁻¹] | self-cleavage kobs at 2500 uM GlcN6P [2] [s⁻¹] | self-cleavage kobs at 10000 uM GlcN6P [3] [s⁻¹]
A33U G43A A48U C61U C70U | < 1e-05 | < 1e-05 | 
G38C G43U A64C | < 1e-05 | < 1e-05 | 
A6C A39U G41C A52U | < 1e-05 | < 1e-05 | 
C8U A14G A39G A53U U54G G63A | < 1e-05 | < 1e-05 | 
G9C A12C G13U G44U C67A | < 1e-05 |  | 
A48U U55G C71A | 2.8e-05 ± 1.3e-05 |  | 
U46A U65A | 0.000776 ± 0.0002 |  | 
G9U A12G C61A | 3.47e-05 ± 1.5e-05 | 8.52e-05 ± 1.9e-05 | 
U54A G59U C68U C70G | < 1e-05 |  | 
A33U G41A G44A A64U | < 1e-05 | < 1e-05 | < 1e-05
G7A C16U C71A | < 1e-05 |  | 
C61U G66C | < 1e-05 | < 1e-05 | 
A33U C34G U49A A53U | < 1e-05 |  | < 1e-05
A6U G38U A39C U55A | < 1e-05 | < 1e-05 | 
U30A A42C C71U | < 1e-05 |  | 
C10G A15C | < 1e-05 |  | < 1e-05
A15U U45C C50G U69G | < 1e-05 | < 1e-05 | 
G38A G40C A42C A72U | < 1e-05 |  | 
C8U U49A U69G | 0.000871 ± 0.00023 | 0.000796 ± 0.00037 | 
C50G G60C C70A | 0.000161 ± 5.8e-05 | 5.41e-05 ± 2.7e-05 | 
C8A C11A G44A | < 1e-05 |  | 
U30G U31G U49G U69G | 7.71e-05 ± 2.2e-05 | 6.45e-05 ± 2.7e-05 | 
C11A G38U A39U G60A | < 1e-05 | < 1e-05 | 

Variant | self-cleavage kobs at 640 uM GlcN6P [1] [s⁻¹] | self-cleavage kobs at 2500 uM GlcN6P [2] [s⁻¹] | self-cleavage kobs at 10000 uM GlcN6P [3] [s⁻¹]
G41C U45G C71U | 4.68e-05 ± 1.6e-05 | 0.000157 ± 3.9e-05 | 
A52C C58G | < 1e-05 |  | < 1e-05
A6C C10A C34G C50U U56A | < 1e-05 | < 1e-05 | 
A12G A36C A39C C71G | < 1e-05 | < 1e-05 | 
C8U A42G A48C | < 1e-05 | < 1e-05 | 
G35C A48G A53U U69C | < 1e-05 |  | 
C10U A39C G41A U46A | < 1e-05 | < 1e-05 | 
A14U G29U U56G | 0.000178 ± 4.1e-05 | 0.000206 ± 7.4e-05 | 
G32U A52U C58U C61U | < 1e-05 | < 1e-05 | 
G32C G35A A64C C70A | < 1e-05 | < 1e-05 | 
G40U U47C A53C U54A | 7.34e-05 ± 2.8e-05 | 0.000202 ± 3.7e-05 | 
C34U G44A A48U U56A G60A | < 1e-05 |  | 
G7A A12G U31A C68G | 0.000116 ± 3.5e-05 |  | 
A14C A36G U49C | < 1e-05 | < 1e-05 | 
C8G G32U U47G C67G C68G | 0.000105 ± 3.3e-05 | 4.39e-05 ± 2.1e-05 | 
A36C G37C U46A A48G C70G | < 1e-05 |  | 
A12C G26A G51U A53G C68G | 0.000191 ± 5.2e-05 | 0.000139 ± 4.6e-05 | 
G41C U46A G60C | < 1e-05 | < 1e-05 | 
A64C C68A C70G | < 1e-05 | < 1e-05 | 
G44C A52G U54G | < 1e-05 | < 1e-05 | 
G9A A48U C50A | < 1e-05 |  | 
C8G G32U G40A G44C C58U | < 1e-05 | < 1e-05 | 
A6G G40A C67U | < 1e-05 | < 1e-05 | 

Variant | self-cleavage kobs at 640 uM GlcN6P [1] [s⁻¹] | self-cleavage kobs at 2500 uM GlcN6P [2] [s⁻¹] | self-cleavage kobs at 10000 uM GlcN6P [3] [s⁻¹]
G9A C11A A14G C34G G35U A36U A48U U55C C67G U69C | < 1e-05 |  | 
G9C A64U | < 1e-05 |  | 
C10A G62U C70G | 9.92e-05 ± 3.7e-05 | 0.000143 ± 4.8e-05 | 
G7C G9C A36G G51C | < 1e-05 |  | 
U30G U46C U47G | 8.33e-05 ± 2.2e-05 |  | 
A6C A14U U55G | < 1e-05 |  | 
A15U C50A C68U | 7.76e-05 ± 2.5e-05 |  | 
A12U C50U G59U | < 1e-05 | < 1e-05 | < 1e-05
C10G G40C C71G | < 1e-05 | < 1e-05 | 
C8A U45C C67U | < 1e-05 |  | 
G40A G41A C71A | 6.52e-05 ± 1.3e-05 | 9.76e-05 ± 1.9e-05 | 
A12G C34U | < 1e-05 |  | < 1e-05
U47A U56A C70U | 0.00117 ± 0.00047 | 0.00157 ± 0.0006 | 
C11A U54G C67G C71A | 0.0001 ± 4e-05 | 0.000224 ± 8.9e-05 | 
C8A U31G C61A | < 1e-05 |  | < 1e-05
A6U U31G C67G | < 1e-05 |  | 
A15G U31C A33C A52U U54C | < 1e-05 | < 1e-05 | 
G7A G32C G51U | < 1e-05 |  | 
C10U G38U U57G C61G G66U | 0.000307 ± 9.3e-05 |  | 
C16U A36C G38A | < 1e-05 |  | < 1e-05
G43C C50A | < 1e-05 | < 1e-05 | 
U45C A53U C67G | 0.00389 ± 0.0016 |  | 
G40A G51A G59A | < 1e-05 |  | 

Variant | self-cleavage kobs at 640 uM GlcN6P [1] [s⁻¹] | self-cleavage kobs at 2500 uM GlcN6P [2] [s⁻¹] | self-cleavage kobs at 10000 uM GlcN6P [3] [s⁻¹]
A15G A42U C71U | 7.41e-05 ± 1.8e-05 | 0.000188 ± 5.3e-05 | 
A36G A39C A52U U57A | < 1e-05 |  | 
C34G A42C A52U C58U U65G | < 1e-05 | < 1e-05 | 
A6G U30G G43C G60U C71G | < 1e-05 |  | 
A36C U54G G63A | < 1e-05 |  | 
C8U A15U A48C A52C C70U | < 1e-05 |  | 
U46G C67U C71A | 6.72e-05 ± 2e-05 |  | 
A15G G51C A52G G62A | < 1e-05 | < 1e-05 | 
G7C G13A G43C G51C A52G C58A G66C C68A | < 1e-05 |  | 
A14U C61A G66A | < 1e-05 |  | 
G7C C10A C71A | < 1e-05 |  | 
A33C G35C U56C C67U | < 1e-05 |  | 
C11A A14C G44A G66U | < 1e-05 | < 1e-05 | 
C16U G32C G35A C68A | < 1e-05 | < 1e-05 | 
U30A G40U G63A A64G | < 1e-05 |  | 
A12G C16G C50G C68G | 0.000104 ± 4.5e-05 |  | 
C10U U45C C68A | < 1e-05 |  | 
G9A C10A G13C G29C | < 1e-05 | < 1e-05 | 
C16A G51U U69G | 9.84e-05 ± 4.1e-05 | 0.000199 ± 9.6e-05 | 

Reference: the supplement of paper PMC7125110
